Patent publication US20230303681A1 (published 2023)
“And” between values parts separate entries of the source, which are not always exact repeats. Equal entries are not always repeated.

B1: anti-TMEM106B antibody TM-23 (antibody, V domains shown)
VH: QVQLQQSGAELIRPGTSVKVSCKASGYAFTNYLIEWVKKRPGQGLEWIGVINPGSGITNYNEKFKGKATLTADKSSSTAYMQLSSLTSEDSAVYFCARSDFITTVVADYWGQGTTVTVSS
VL: DIVVTQTPLSLPVSFGDQVSISCRSSQSLTNYYGNTYLSWYLHKPGQSPQLLIYGISNRFSGVPDRFSGSGSGTDFTLKISTIKPEDLGMYYCLQGTHQPRTFGGGTKLEIK
B2: anti-TMEM106B antibody TM-25 (antibody, V domains shown)
VH: EVQLVESGGDLVKPGGSLRLSCAASGFTFSGYGMSWIRQTPDKRLEWVATISSGGRYTVYPDSVKGRFTMSRDNVKNTLYLQMSSLKSEDTALYYCARDNFYSYAMDYWGLGTSVTVSA
VL: DIVMTQAAFSNPVTLGTSASISCRSSKSLLHSNGITYLFWYLQKPGQSPQLLIYQMSNLASGVPDRFSSSGSGTDFTLRISRVEAEDVGVYYCAQNLELWTFGGGTKLEIK
B3: anti-TMEM106B antibody TM-26 (antibody, V domains shown)
VH: QVQLQQSGAELIRPGTSVKVSCKASGYAFTNYLIEWVKKRPGQGLEWIGVINPGSGITNYNEKFKGKATLTADKSSSTAYMQLSSLTSEDSAVYFCARSDFITTVVADYWGQGTTVTVSS
VL: DIVVTQTPLSLPVSFGDQVSISCRSSQSLTNYYGNTYLSWYLHKPGQSPQLLIYGISNRFSGVPDRFSGSGSGTDFTLKISTIKPEDLGMYYCLQGTHQPRTFGGGTKLEIK
B4: anti-TMEM106B antibody TM-27 (antibody, V domains shown)
VH: QVQLQQSGAELVRPGTSVKVSCKASGYALTNYLIEWVKQRPGQGLEWIGVINPGSGSTKYNEKFKGKATLTADKSSSTAYMQLSSLTSEDSAVYFCARIIYDHDWYFDVWGTGTTVTVSS
VL: QIVLTQSPAIMSASPGEKVTISCSASSSISYMYWYQQKPGSSPKPWIYRTSTLASGVPARFSGSGSGTSYSLTISSMEAEDAATYYCQQYHSYPRTFGGGTKLEIK
B5: anti-TMEM106B antibody TM-13 (antibody, V domains shown)
VH: QVQLQQSGAELVKPGASVKMSCKASGYTFTTFPIEWMKQSHGKGLEWIGNFHPYNDDTKYNEKFKGKATLTVDKSSSTVYLDLSRLTSDDSAVYYCARYFYGGMDYWGQGTSVTVSS
VL: DIQMTQSPASLSVSVGETVTITCRASENIYSSLGWYQQKQGESPQLLVFAATNLADGVPSRFSGSGSGTQYSLKINSLQSEDFGTYYCQHLWSIPWTFGGGTRLEIK
B6: anti-TMEM106B antibody TM-28 (antibody, V domains shown)
VH: EVQLQQSGPVLVKPGPSVKISCMASVFTFNDYYIHWVKQSHGKSLEWIGLVYPYNGGTNYNQNFKGKATLTVDTSSRTAYMELNSLTSEDSAVYYCARSYFSNPIGYWGQGTLVTVSE
VL: DIVMTQSPSSLSVSVGEKVTVSCKSSQSLLNSGNQKNYLAWYQQKPGQPPKLLIYGASTRESGVPDRFTGSGSGTDFTLTISSVQAEDLAVYYCQNDHSYPLTFGAGTKLELK
B7: anti-TMEM106B antibody TM-29 (antibody, V domains shown)
VH: QVQLRQSGAELVRPGASVKLSCKASGYTFTDYYINWVKQRPGQGLEWIARIYPGSGYTYYNEKFKGKATLTAEGSSNTAYMQLSSLTSEDSAVYFCANHYTNPFAYWGQGTLVTVSA
VL: DIVMTQAAFSNPVTLGTSASISCRSSKSLLHYNGITYLYWYLQKPGQSPQLLIYQMSNLASGVPDRFSSSGSGTDFTLRISRVEAEDVGVYYCAQNLELPYTFGGGTKLEIK
B8: anti-TMEM106B antibody TM-3 (antibody, V domains shown)
VH: QVTLKESGPGIVQPSQTLSLTCSFSGFSLNTLGRGVGWIRQPSGKGLEWLAKIWWNDDKFYYPALKSRLTISKDTSKNQIFLKIANVDTADSATYYCARIAGGTGAAYWGQGTTLTVSS
VL: DIVMTQAAFSNPVTLGTSASISCRSSKSLLHSNGITYLYWYLQKPGQSPQLLISQMSSLASGVPDRFSSGGSGTDFTLRISRVEAEDVGVFYCAQNLELPWTFGGGTKLELK

Legend:
[1] = biological target: T1, GST-fusion human TMEM106B truncated (human); assay: array SPR, Ab immobilised;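 further: antibodies amine-coupled on an MX-96 chip, antigen flowed at 500 nM top concentration in 5-fold serial dilutions, GST alone run as nonspecific-binding control, duplicate measurements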
T1 construct: also called GST-TMEM106B-truncated protein; GST-TMEM106B (truncated)

[2] = biological target: T2, human TMEM106B (human, UniProt Q9NUM4 2-274); assay: FACS A549, 10 ug/ml
T2 construct: Full-length, on transiently transfected HEK293 cells, or natively expressed on HeLa, U251 and A549 cells; also called huTMEM106B; huTMEM
Method: (§1) Purified anti-TMEM106B antibodies were evaluated for their binding affinity to various TMEM106B-expressing cell lines including HEK293 transiently transfected with human/cyno/mouse TMEM106B, as well as HeLa cells and A549 cells. Antibodies tested for this experiment were mouse IgGs purified from hybridoma supernatant. Affinity binding to cells was determined as follows. Briefly, 1x10^5 cells were aliquoted per well in 96-well round bottom plates and incubated with 50 µL of purified anti-TMEM106B antibody at various concentrations (10x dilutions starting at 10 µg/ml) in FACS buffer (PBS + 2% FBS + 1 mM EDTA). […] Sorting was performed on a iQue (Intellicyt), with sort gates drawn to exclude dead (propidium iodide +) cells. Binding data was analyzed using median fluorescent intensity (MFI) and graphed in Prism. Values presented are MFI.

[3] = biological target: T2, human TMEM106B; assay: FACS HEK+huTMEM, 10 ug/ml;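 further: purified mouse IgG antibodies at 10 µg/ml bound to HEK293 cells transiently expressing human TMEM106B, measured by flow cytometry as median fluorescence intensity of propidium iodide negative live cells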
[4] = biological target: T2, human TMEM106B; assay: FACS, HEK293 transfectants;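 on fold over negative controls: hybridoma supernatants incubated 30 min on ice with human TMEM106B-expressing HEK293 cells, binding read as anti-mouse-APC median fluorescence on live cells, relative to secondary-antibody-only wells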;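 on fold-change over parental HEK293: flow cytometry binding of hybridoma supernatants to HEK293 cells transiently expressing human, cyno or mouse TMEM106B, read as anti-mouse-APC median fluorescence, live cells only, 30 min on ice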
Method: Initial screening of the anti-TMEM106B hybridomas was performed as follows.
For screening of the hybridoma cell culture supernatants, humanTMEM106B-transfected HEK293 cells were aliquoted in 96-well round bottom plates (2x10^5 cells per well) and incubated with 50 µL of hybridoma cell culture supernatant on ice for 30 minutes. […] Cell sorting was performed on a FACS Canto system (BD Biosciences) or iQue (Intellicyt), with sort gates drawn to exclude dead (i.e., propidium iodide-positive) cells. Median fluorescence intensity (MFI) of anti-mouse-APC MFI on TMEM106B+ HEK293 cells was calculated for each clone, and those displaying a signal of at least 2-fold over background compared to a secondary-antibody only well were taken forward for further analysis and characterization.

[5] = biological target: T3, cynomolgus (cyno) TMEM106B (cynomolgus, UniProt Q9NUM4 2-274 (human entry)); assay: FACS, HEK293 transfectants;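 further: flow cytometry binding of hybridoma supernatants to HEK293 cells transiently expressing human, cyno or mouse TMEM106B, read as anti-mouse-APC median fluorescence, live cells only, 30 min on ice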
T3 construct: on transiently transfected HEK293 cells

[6] = biological target: T4, mouse TMEM106B (mouse, UniProt Q80X71 2-275); assay: FACS, HEK293 transfectants;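 further: flow cytometry binding of hybridoma supernatants to HEK293 cells transiently expressing human, cyno or mouse TMEM106B, read as anti-mouse-APC median fluorescence, live cells only, 30 min on ice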
T4 construct: on transiently transfected HEK293 cells, or natively expressed on mouse Neuro2a cells; also called moTMEM106B; murine TMEM106B

[7] = biological target: T2, human TMEM106B; assay: FACS, HEK293 transfectants; remark: listed apart in the source;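 on fold over negative controls: hybridoma supernatants incubated 30 min on ice with human TMEM106B-expressing HEK293 cells, binding read as anti-mouse-APC median fluorescence on live cells, relative to secondary-antibody-only wells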;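 on fold-change over parental HEK293: flow cytometry binding of hybridoma supernatants to HEK293 cells transiently expressing human, cyno or mouse TMEM106B, read as anti-mouse-APC median fluorescence, live cells only, 30 min on ice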
[8] = biological target: T2, human TMEM106B; assay: FACS A549, 1 ug/ml
Method: as §1

[9] = biological target: T5, GST (Pierce) (UniProt P08515 1-218 = GST, limits assumed); assay: ELISA, coated GST;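 further: ELISA on plates coated with GST alone at 1-10 µg/ml, antibodies applied at 100-1000x dilution, bound antibody detected by peroxidase substrate colour after acid stop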
T5 construct: control for the GST part of the fusion protein; also called GST protein; Glutathione-S-transferase

[10] = biological target: T2, human TMEM106B; assay: FACS HeLa;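 further: flow cytometry of cells incubated with hybridoma supernatant or purified antibody at 10 µg/ml for 1 h on ice, propidium iodide–positive dead cells gated out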
[11] = biological target: T2, human TMEM106B; assay: FACS HEK+huTMEM, 1.0 ug/ml
Method: as §1

[12] = biological target: T2, human TMEM106B; assay: FACS U251;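 further: flow cytometry of cells exposed to antibody (purified at 10 µg/mL, or hybridoma supernatant) for 1 h on ice, with propidium iodide-positive dead cells gated out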
Method: (§2) All cells were cultured in either T75 or T150 flasks. […] The enzyme was quenched by addition of fresh media, and the cells were then distributed into 96-well plates for FACS analysis.
(§3) FACS analysis was performed as follows. Each cell type was aliquoted in 96-well round bottom plates (2x10^5 cells per well), washed once with FACS buffer (PBS + 2% FBS + 1 mM EDTA), and incubated with 50 µL of hybridoma supernatant or purified antibody (10 µg/ml in FACS buffer) on ice for 1 hour. […] Following this secondary incubation, the cells were again washed 2x with ice-cold FACS buffer and resuspended in a final volume of 50 µL of FACS buffer + 0.25 µl/well propidium iodide (Fisher Scientific # BDB556463). Analysis was performed on a FACSCanto system (BD Biosciences) or iQue (Intellicyt), with sort gates drawn to exclude dead (i.e., propidium iodide positive) cells.
(§4) Data is presented as mean fluorescence intensity (MFI).

[13] = biological target: T2, human TMEM106B; assay: FACS A549
Method: as §2, §3, §4

[14] = biological target: T2, human TMEM106B; assay: FACS HEK+huTMEM, 0.1 ug/ml;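 further: flow cytometry binding of purified mouse IgG antibodies to HEK293 cells transiently expressing TMEM106B, read as median fluorescence intensity with propidium iodide positive dead cells gated out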
[15] = biological target: T4, mouse TMEM106B; assay: FACS Neuro2a;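 further: flow cytometry of cells stained with antibody or hybridoma supernatant (purified antibody at 10 µg/ml) for 1 h on ice, propidium iodide–positive dead cells gated out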
Method: as §2, §3, §4

[16] = biological target: T2, human TMEM106B; assay: FACS HEK+huTMEM, 0.01 ug/ml

| Binder | Kd [1] | koff [1] | kon [1] | MFI [2] | MFI [3] | fold over negative controls [4] | fold-change over parental HEK293 [5] | fold-change over parental HEK293 [6] | fold-change over parental HEK293 [7] | MFI [8] | binding result [9] | MFI [10] | MFI [11] | MFI [12] | MFI [13] | MFI [14] | MFI [15] | MFI [16] |
| --- | --- | --- | --- | --- | --- | --- | --- | --- | --- | --- | --- | --- | --- | --- | --- | --- | --- | --- |
| B1 | 12 nM and 26 nM | 0.00045 s⁻¹ and 0.001 s⁻¹ | 36000 M⁻¹ s⁻¹ and 41000 M⁻¹ s⁻¹ | 757 | 12400 | > 2 fold | 12.2 fold | 4.46 fold | 7.09 fold | 398 | no binding | 308 | 3900 | 278 | 1090 | 2410 | 333 | 1100 |
| B2 | 1.5 nM and 2.6 nM | 3.3e-05 s⁻¹ and 5.8e-05 s⁻¹ | 22000 M⁻¹ s⁻¹ | 7000 | 60300 | > 2 fold | 21.4 fold | 2.87 fold | 13 fold | 4530 | no binding | 2560 | 64700 | 1110 | 1700 | 32800 | 354 | 4310 |
| B3 | 12 nM and 19 nM | 0.00041 s⁻¹ and 0.00085 s⁻¹ | 34000 M⁻¹ s⁻¹ and 45000 M⁻¹ s⁻¹ | 509 | 3850 | > 2 fold | 18 fold | 6.54 fold | 11.8 fold | 380 | no binding | 384 | 3340 | 300 | 952 | 1960 | 324 | 1000 |
| B4 | 16 nM and 18 nM | 0.00048 s⁻¹ and 0.00068 s⁻¹ | 31000 M⁻¹ s⁻¹ and 39000 M⁻¹ s⁻¹ | 622 | 4140 | > 2 fold | 13.5 fold | 3.32 fold | 7.62 fold | 431 | no binding | 2960 | 3040 | 1320 | 1930 | 1700 | 1580 | 744 |
| B5 | 2.4 nM and 2 nM | 7e-05 s⁻¹ and 8.4e-05 s⁻¹ | 29000 M⁻¹ s⁻¹ and 42000 M⁻¹ s⁻¹ | 3890 | 67500 | > 2 fold | 55.5 fold | 52.7 fold | 36.7 fold | 1950 | no binding | 1380 | 67100 | 787 | 1260 | 19100 | 927 | 2900 |
| B6 | 5.3 nM | 7.2e-05 s⁻¹ | 14000 M⁻¹ s⁻¹ | 4350 | 64800 | > 2 fold | 33.7 fold | 22.1 fold | 19.7 fold | 2630 | no binding | 2790 | 66400 | 998 | 2000 | 19800 | 2740 | 3340 |
| B7 | 3.5 nM and 5.2 nM | 6.5e-05 s⁻¹ and 7.8e-05 s⁻¹ | 18000 M⁻¹ s⁻¹ and 15000 M⁻¹ s⁻¹ | 4200 | 61200 | > 2 fold | 66 fold | 44.6 fold | 35.1 fold | 2480 | no binding | 1650 | 63300 | 730 | 1410 | 24400 | 1480 | 4050 |
| B8 | 1.7 nM and 2.1 nM | 3.8e-05 s⁻¹ and 4.8e-05 s⁻¹ | 22000 M⁻¹ s⁻¹ and 23000 M⁻¹ s⁻¹ | 7670 | 82300 | > 2 fold | 40.5 fold | 29.2 fold | 24.4 fold | 4840 | no binding | 2690 | 89100 | 1080 | 1800 | 48700 | 1980 | 7700 |
